The values that follow come from paper PMC4720418, “Experimental validation of in silico model‐predicted isocitrate dehydrogenase and phosphomannose isomerase from D ehalococcoides mccartyi” (Microbial Biotechnology, 2015).

Common to all, as to test: purified protein
Holding throughout (assay type): biochemical, Dehalococcoides mccartyi

Substrate in data set [1]: NC(=O)c1ccc[n+]([C@@H]2O[C@H](COP(=O)(O)OP(=O)(O)OC[C@H]3O[C@@H](n4cnc5c(N)ncnc54)[C@H](OP(=O)(O)O)[C@@H]3O)[C@@H](O)[C@H]2O)c1
As to conditions: D-isocitric acid as co-substrate (1 mM in standard assay), 10 mM MgCl2, 50 mM Tris-HCl pH 7.5 (standard assay; kinetics at selected pH), 30 °C, varied: cofactor.

Substrate in data set [2]: NC(=O)c1ccc[n+]([C@@H]2O[C@H](COP(=O)(O)OP(=O)(O)OC[C@H]3O[C@@H](n4cnc5c(N)ncnc54)[C@H](O)[C@@H]3O)[C@@H](O)[C@H]2O)c1
As to conditions: D-isocitric acid as co-substrate (1 mM in standard assay), 10 mM MgCl2, 50 mM Tris-HCl pH 7.5 (standard assay; kinetics at selected pH), 30 °C, varied: cofactor.

Substrate in data set [3]: O=C(O)C[C@H](C(=O)O)[C@@H](O)C(=O)O
As to conditions: 0.3 mM NADP+, 10 mM MgCl2, 50 mM Tris-HCl pH 7.5 (standard assay; kinetics at selected pH), 30 °C.

B1: DmIDH (KB1_0495) (Dehalococcoides mccartyi CBDB1) (protein)
chain: MYHNVTLIPGDGIGPEISEATRRVLEATGVKFNWEVVNAGADVVAEYGTPLPDMVLESIRKNKVAIKGPVTTPVGSGFRSVNVGMRKALNLYTCLRPCKTYPGVPSRYDNVDIVIVRENMEDLYAGIEFEKGSAEALRLIEFIKENKKVEIRTDSGISIKPISVFGTERIFRWAFKYAKDNNRKKVTAVHKANIMKYSDGLFLAVGRKVAEEYPEIEFEDRIVDNMTMQLVKTPTQFDILVCPNLYGDILSDLCAGLVGGLGVAPGANIGDEYALFEPTHGSAPKYKGLNKVNPMAMMLSGVLMLRYLKEEKAADKLENAIAAVIAEGKSVTYDMLSPDKQAVAVGTSQVADAIIAKMK
notes: recombinant, N-terminal 6xHis tag with TEV site (modified pET-15b), E. coli BL21(DE3), Ni-NTA and gel filtration
A word on the Km: it is the concentration of substrate that gives half-maximal velocity. A word on the Vmax: it is the top rate of the reaction or transport when substrate is in excess. For orientation: kcat means the number of substrate molecules converted per active site and unit of time at saturation. The term kcat/Km denotes the second-order rate constant that governs catalysis at low substrate concentration. Consider B1, for which, in the data set “purified protein [1]”, the Michaelis-Menten constant (Km) stood at 27 ± 20 µM, the Vmax stood at 20.8 µmol/min/mg, the kcat worked out at 14.6 ± 1 s⁻¹ and the kcat/Km is 540000 ± 1000 M⁻¹ s⁻¹. Also, in the data set “purified protein [2]”, the Km amounted to 120 ± 40 µM, the Vmax worked out at 0.32 µmol/min/mg, the kcat was 0.22 ± 0.03 s⁻¹ and the kcat/Km is 2000 ± 1000 M⁻¹ s⁻¹. Moreover, in “purified protein [3]”, the Km amounted to 110 ± 10 µM, the Vmax was 21.3 µmol/min/mg, the catalytic constant (kcat) came out at 15 ± 1 s⁻¹ and the catalytic efficiency (kcat/Km) is 139600 ± 1000 M⁻¹ s⁻¹.
